We go through 13 substances from patent publication US20250320281A1.

A value given as a limit tells only on which side of the number the result lay.

As usually defined, the IC50 is the concentration needed to halve the response being measured. High values mean a need for much substance, low ones inhibition by little substance.

Common to all, as to assay: cell-based or functional assay
Assay [1] concerns the target HIV-1 MGRM-D-001 Env (pseudovirus) (HIV-1).
Assay [2] concerns the target HIV-1 Env of isolate MGRM-G-013 (HIV-1).
For assay [3], the target named is HIV-1 Env of isolate MGRM-AE-003 (subtype AE) (HIV-1).
In assay [4] the target is HIV-1 Env of isolate MGRM-G-004 (HIV-1).
Assay [5] concerns the target HIV-1 93UG077 Env (pseudovirus) (HIV-1).
For assay [6], the target named is HIV-1 envelope glycoprotein (Env) of isolate MGRM-C-019 (HIV-1).
For assay [7], the target named is HIV-1 envelope glycoprotein (Env) of isolate MGRM-C-020 (HIV-1).
Assay [8] deals with HIV-1 Env of isolate SF162 (subtype B) (HIV-1) (UniProt P19550).
Assay [9] concerns the target HIV-1 Env of isolate 92UG005 (HIV-1).
Assay [10] addresses HIV-1 Env of isolate MGRM-AG-013 (subtype AG) (HIV-1).
In assay [11] the target is HIV-1 Env of isolate APV-13 (HIV-1).
Assay [12] has as its target HIV-1 envelope glycoprotein (Env) of isolate MGRM-C-017 (HIV-1).
Assay [13] concerns the target HIV-1 Env of isolate SC422661.8 (subtype B) (HIV-1).
Assay [14] has as its target HIV-1 Env of isolate 6535.3 (HIV-1).
For assay [15], the target named is HIV-1 93IN905 Env (pseudovirus, clade C) (HIV-1).
For assay [16], the target named is HIV-1 MGRM-C-026 Env (pseudovirus, clade C) (HIV-1).
Assay [17] addresses HIV-1 93UG077 Env (pseudovirus, clade A) (HIV-1).
Assay [18] addresses HIV-1 JRCSF Env (pseudovirus, clade B) (HIV-1) (UniProt P20871).
The target of assay [19] is HIV-1 Env of isolate MGRM-F1-022 (HIV-1).
Assay [20] deals with HIV-1 Env of isolate MGRM-F1-016 (HIV-1).
Assay [21] addresses HIV-1 Env of pseudovirus MGRM-AG-005 (clade CRF_AG) (HIV-1).
In assay [22] the target is HIV-1 envelope glycoprotein (Env) of isolate MGRM-A-009, clade A (HIV-1).
For assay [23], the target named is HIV-1 JRCSF envelope glycoprotein (Env) on pseudovirus (HIV-1) (UniProt P20871).
The target of assay [24] is HIV-1 Env of isolate 97ZA012 (clade C) (HIV-1 isolate 97ZA012).
Assay [25] concerns the target HIV-1 Env of pseudovirus MGRM-G-017 (HIV-1, clade G isolate MGRM-G-017).
Assay [26] has as its target HIV-1 Env of pseudovirus MGRM-Chronic-B-024 (HIV-1).
In assay [27] the target is HIV-1 envelope glycoprotein (Env) of isolate MGRM-A-012, clade A (HIV-1).
Assay [28] addresses HIV-1 envelope glycoprotein (Env) of isolate MGRM-A-013, clade A (HIV-1).
Assay [29] concerns the target HIV-1 Env of pseudovirus MGRM-G-019 (HIV-1, clade G isolate MGRM-G-019).

Sequence of 4970_K22 (PGT-144) (antibody) (VH): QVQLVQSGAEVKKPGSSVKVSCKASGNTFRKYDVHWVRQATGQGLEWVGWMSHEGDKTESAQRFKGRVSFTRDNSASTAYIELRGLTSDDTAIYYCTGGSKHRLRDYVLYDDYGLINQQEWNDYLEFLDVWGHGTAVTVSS
Sequence of 4970_K22 (PGT-144) (antibody) (VL): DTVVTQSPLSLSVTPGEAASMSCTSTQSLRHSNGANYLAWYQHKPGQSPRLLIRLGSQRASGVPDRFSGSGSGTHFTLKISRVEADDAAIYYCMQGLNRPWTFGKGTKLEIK
Sequence of 5345_I01 (PGT-137) (antibody) (VH): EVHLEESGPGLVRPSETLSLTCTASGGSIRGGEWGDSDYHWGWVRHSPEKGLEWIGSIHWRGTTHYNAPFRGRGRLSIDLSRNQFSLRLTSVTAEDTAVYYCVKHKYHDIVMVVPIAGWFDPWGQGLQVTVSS
Sequence of 5345_I01 (PGT-137) (antibody) (VL): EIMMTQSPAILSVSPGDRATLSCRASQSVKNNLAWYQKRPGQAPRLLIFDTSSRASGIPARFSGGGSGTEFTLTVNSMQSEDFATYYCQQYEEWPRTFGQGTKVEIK
Sequence of 5329_C19 (PGT-136) (antibody) (VH): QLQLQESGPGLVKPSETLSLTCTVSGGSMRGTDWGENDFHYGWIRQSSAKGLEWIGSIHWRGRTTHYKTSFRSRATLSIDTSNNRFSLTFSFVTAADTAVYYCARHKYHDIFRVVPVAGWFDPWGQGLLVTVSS
Sequence of 5329_C19 (PGT-136) (antibody) (VL): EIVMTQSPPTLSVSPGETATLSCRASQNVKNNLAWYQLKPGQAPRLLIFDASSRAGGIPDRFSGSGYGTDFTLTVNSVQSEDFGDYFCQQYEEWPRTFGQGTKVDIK
Sequence of 4995_E20 (PGT-142) (antibody) (VH): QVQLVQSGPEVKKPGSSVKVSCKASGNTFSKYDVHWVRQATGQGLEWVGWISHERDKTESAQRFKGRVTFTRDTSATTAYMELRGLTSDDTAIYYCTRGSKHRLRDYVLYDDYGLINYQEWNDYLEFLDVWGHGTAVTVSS
Sequence of 4995_E20 (PGT-142) (antibody) (VL): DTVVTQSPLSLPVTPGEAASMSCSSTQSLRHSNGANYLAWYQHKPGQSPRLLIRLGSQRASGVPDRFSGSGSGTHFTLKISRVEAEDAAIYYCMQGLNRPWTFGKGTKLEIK
Sequence of 4980_N08 (PGT-143) (antibody) (VH): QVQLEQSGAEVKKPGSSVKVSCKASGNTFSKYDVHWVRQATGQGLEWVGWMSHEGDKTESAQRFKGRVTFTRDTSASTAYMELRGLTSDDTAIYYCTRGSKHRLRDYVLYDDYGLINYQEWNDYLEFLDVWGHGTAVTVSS
Sequence of 4980_N08 (PGT-143) (antibody) (VL): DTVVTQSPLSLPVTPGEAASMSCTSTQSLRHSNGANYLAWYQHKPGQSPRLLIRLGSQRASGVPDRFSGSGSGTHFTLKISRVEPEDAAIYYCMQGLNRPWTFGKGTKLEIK
Sequence of 4993_K13 (PGT-141) (antibody) (VH): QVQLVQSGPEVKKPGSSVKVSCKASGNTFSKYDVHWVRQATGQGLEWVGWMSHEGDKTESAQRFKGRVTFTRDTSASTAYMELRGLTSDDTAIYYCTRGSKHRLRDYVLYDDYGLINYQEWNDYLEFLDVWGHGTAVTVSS

As for 4970_K22 (PGT-144) (antibody), the IC50 (neutralizing activity, pseudovirus) in assay [1] and in [5] was greater than 10 µg/mL in each case. The IC50 (µg/mL), pseudovirus neutralization in assay [2], in assay [3] and in [4] was greater than 50 µg/mL throughout.

As to 5136_H01 (PGT-131) (antibody), the IC50 (µg/mL), pseudovirus neutralization was 0.021 µg/mL in assay [6]; greater than 50 µg/mL in assay [7]; 0.854 µg/mL in assay [9]; 0.03 µg/mL in assay [10]; 1.41 µg/mL in assay [3]; greater than 50 µg/mL in assay [12]. In addition, the IC50 neutralization in [8] is 0.025 µg/mL; in [13] it was greater than 50 µg/mL. Moreover, the values for the neutralization IC50 in [11] and in assay [14] were 0.189 µg/mL and 0.056 µg/mL, respectively.

As for 4980_N08 (PGT-143) (antibody), the IC50 (neutralizing activity, pseudovirus) in assay [1] and in assay [5] was greater than 10 µg/mL throughout. Further, the IC50 (µg/mL), pseudovirus neutralization in assay [2], in assay [3] and in [4] was greater than 50 µg/mL each time.

With 4995_E20 (PGT-142) (antibody), the IC50 (neutralizing activity, pseudovirus) in assay [1] and in [5] was greater than 10 µg/mL throughout. Moreover, the IC50 (µg/mL), pseudovirus neutralization in [2], in assay [3] and in [4] was greater than 50 µg/mL throughout.

As for 5343_B08 (PGT-135) (antibody), the IC50 neutralization in assay [15] was 0.0183 µg/mL; in [16], 0.0123 µg/mL; in assay [17] it was greater than 10 µg/mL; in assay [18], 0.113 µg/mL; in assay [8] it was 0.023 µg/mL; in [13], 21.8 µg/mL. The IC50 (µg/mL), pseudovirus neutralization in assay [6] is 0.264 µg/mL; in [7] it was greater than 50 µg/mL; in assay [9] it was greater than 50 µg/mL; in assay [10], greater than 50 µg/mL; in [3] it was greater than 50 µg/mL; in [12], greater than 50 µg/mL. For the same substance, the IC50 (neutralizing activity, pseudovirus) in assay [1] and in assay [5] was greater than 10 µg/mL each time. Besides, the neutralization IC50 in assay [11] was 0.716 µg/mL; in [14] it was greater than 50 µg/mL.

For the substance 5147_N06 (PGT-130) (antibody), the IC50 neutralization is 0.0182 µg/mL in assay [15]; 0.0173 µg/mL in assay [16]; greater than 10 µg/mL in assay [17]; 0.0089 µg/mL in [18]; 0.007 µg/mL in assay [8]; greater than 50 µg/mL in assay [13]. Moreover, the IC50 (µg/mL), pseudovirus neutralization was 0.01 µg/mL in assay [6]; greater than 50 µg/mL in assay [7]; 0.959 µg/mL in assay [9]; 0.01 µg/mL in assay [10]; 0.337 µg/mL in assay [3]; greater than 50 µg/mL in [12]. For the same substance, the Neutralization by PGT-130, IC50 in assay [1] and in [5] was greater than 10 µg/mL in each case. The Neutralization by PGT-130, IC80 in [1] and in assay [5] was greater than 10 µg/mL each time. The Neutralization by PGT-130, IC90 in assay [1] and in assay [5] was greater than 10 µg/mL each time. For the same substance, the Neutralization by PGT-130, IC95 in assay [1] and in assay [5] was greater than 10 µg/mL throughout. Also, the neutralization IC50 (pseudovirus) in assay [1] and in assay [5] was greater than 10 µg/mL throughout. Also, the values for the neutralization IC50 in assay [11] and in assay [14] were 0.052 µg/mL and 0.031 µg/mL, respectively.

Turning to VRC01 (antibody), the results for the IC50 in assay [19] and in [20] were 0.055 µg/mL and 0.517 µg/mL, respectively. Further, the values for the IC50 (µg/mL), pseudovirus neutralization in [2], in assay [3] and in assay [4] were 0.553 µg/mL, 0.685 µg/mL and greater than 50 µg/mL, respectively.

Regarding 4993_K13 (PGT-141) (antibody), the IC50 (neutralizing activity, pseudovirus) in assay [1] and in assay [5] was greater than 10 µg/mL throughout. Also, the IC50 (µg/mL), pseudovirus neutralization in [2], in [9], in assay [3] and in [4] was greater than 50 µg/mL each time.

As to 5345_I01 (PGT-137) (antibody), the IC50 (µg/mL), pseudovirus neutralization in assay [6], in assay [7], in assay [9], in assay [10], in assay [3] and in assay [12] was greater than 50 µg/mL each time. Besides, the IC50 neutralization in [8] was 3.41 µg/mL; in [13], greater than 50 µg/mL. Further, the neutralization IC50 in assay [11] and in assay [14] was greater than 50 µg/mL in each case.

Take 5114_A19 (PGT-128) (antibody): the IC50 (µg/mL), pseudovirus neutralization in assay [6] turned out to be 0.01 µg/mL; in assay [7], 5.85 µg/mL; in [9], 0.018 µg/mL; in assay [10] it was 0.004 µg/mL; in [3], 0.18 µg/mL; in assay [12] it was 1.06 µg/mL. Moreover, the IC50 neutralization in assay [8] is 0.007 µg/mL; in [13], 1.58 µg/mL. In addition, the results for the neutralization IC50 in assay [11] and in [14] were 0.008 µg/mL and 0.011 µg/mL, respectively.

For 1496_C09 (PG9) (TCN-109) (antibody), the IC50 neutralization in assay [15] turned out to be 0.048 µg/mL; in assay [16] it was 0.113 µg/mL. For the same substance, the concentration for half-maximal inhibition (IC50) in [21] was 29.7 µg/mL. Besides, the IC50 (µg/ml), pseudovirus neutralization was determined as 0.03 µg/mL in assay [22]; 1.27 µg/mL in [24]; 0.03 µg/mL in [25]; 0.18 µg/mL in assay [26]; 11.2 µg/mL in assay [27]; 0.16 µg/mL in assay [28]. In assay [29], this substance displayed an IC50 (µg/ml), pseudovirus neutralization of 0.67 µg/mL. The IC50, pseudovirus neutralization in [23] is less than 0.0025 µg/mL. Besides, in [23], the IC90 (pseudovirus neutralization) was less than 0.0025 µg/mL. In [14], this substance yielded an IC50 (µg/mL), pseudovirus neutralization of 1.05 µg/mL.

Take PGV04 (antibody): the IC50 (µg/mL), pseudovirus neutralization in assay [2] was 0.168 µg/mL; in assay [4], greater than 50 µg/mL; in [14], 0.757 µg/mL.

Consider 5329_C19 (PGT-136) (antibody), for which the IC50 neutralization in [15] is 0.0135 µg/mL; in assay [16], 0.0065 µg/mL; in assay [17], greater than 10 µg/mL; in [18], greater than 10 µg/mL; in assay [8], 0.482 µg/mL; in assay [13] it was greater than 50 µg/mL. For the same substance, the IC50 (µg/mL), pseudovirus neutralization was 20.1 µg/mL in assay [6]; greater than 50 µg/mL in assay [7]; greater than 50 µg/mL in [9]; greater than 50 µg/mL in assay [10]; greater than 50 µg/mL in assay [3]; greater than 50 µg/mL in [12]. Further, the IC50 (neutralizing activity, pseudovirus) in assay [1] and in [5] was greater than 10 µg/mL in each case. For the same substance, the neutralization IC50 in assay [11] and in [14] was greater than 50 µg/mL throughout.
